Laboratory results: the DeepSol protein solubility set

Assay: soluble on expression in E. coli; label from the status in PepcDB or PDB records

| Sequence | soluble on expression in E. coli |
| --- | --- |
| MNNENMLSDNSTQTSQINETIDQPIIYILDTNILLHEPFAFLSFKEHDVVVPMTVLEELDSIKDRRKDVSRDARVAIRALEDTLRDASPEQVLAGVKLPQNDDQHPSGSLAIINDYALEKTAHTLSFNENDNRIINAALHIQKKTPNKKIVLVTKDINMRLKAKGAGLAHVEDYRTDQLIDDIQFLTKGYHKFEGDFWQQIQSVDSETEGRNTTHYVSRETVPSTYINEYLLDDSGTFAGKVTGWDDDKLAILDLGRERLLAKNAWGIHPKNIYQGMAMDALLDPTIDLVILTGPAGSGKTLLALASALEQVIERGLYDKIIVTRSTPEIAESIGFLPGTEEEKMAPWLAAITDSLEVLHQQDESMHGSLNYIMDKANIQFKSVNFMRGRSIQNALVLLDECQNLTAAQLKTIITRCGEGTKLVCSGNLAQIDSNYLTAVTSGLTYIVERFKDFPGSATVNLNGVVRSRLASFAEENL | soluble |
| MKLIRGIHNLSQAPHGCVLTIGNFDGVHRGHRALLQGLQEEGRRRGLPVVVMIFEPQPLELFATDKAPARLTRLREKLHYLAQCGVDYVLCVKFDRRFAALTAQTFISELLVERLGVQFLAVGDDFRFGASRAGDFLLLQKAGAEYGFAVSSTQTFCEGGVRISSTAVRQALAEDNLALAESLLGHPFTISGRVVHGDELGRTIGFPTANLPLRRQVSPVKGVYAVEVTGLGDKPLPGVANIGTRPTVAGVRQQLEVHLLDVVMDLYGRHIDVILRKKIRNEQRFASLDELKAQIARDELTARKFFGLAGQV | not soluble |
| GPGSMVQRTLFDFVSKKGDNATTEEVGSKTESGQPSASSRKRTAEDQVANGGASNLTRARVAKENNGALASLIVDPGWEAFLKPLTTSSNFERIEKFLEGELNAGKTILPPREMIFSAFNSTPLDMLKVVLLGQDPYHNVGQAHGLCFSVLPGVPPPPSLINMYKELATDIPGFVAPQHGYLQHWAEQGVLMLNATLTVEIHKANSHATCGWQTFTDDVIRLLSEKHKNPLVFLLWGGFAKRKISLIDRKRHVVIECAHPSPLSAAKWWGSRPFSKCNTALVEKKLSPIDWKLPVCLSKGK | not soluble |
| MRKLALVPIQFYRYAISPLMASHCRFYPSCSCYAYEAIDNHGLLRGGWLSIRRLGRCHPWNPGGYDPVPAVPTSRSSSMAELEHHHHHH | not soluble |
| MPLPPHLSDRVVALQPSLTLAISARAKALQQEGRDICSLSAGEPDFNTPEFIIDATVKALRDGITRYGPAAGDPELREAIATKLSKENTVPTNAEQVLVTNGGKQAIFNLFQVILNPGDEVLIPAPYWLSYPEMARLAGAKVTTLPSTPENGFCLDLNNLEASIGPKTRLLLLNSPGNPTGRVMARKELETLADLLRDHPQILVMSDEIYEFILEEGQQHYSFSAIAPDLSNRTFIVNGFAKGWAMTGWRLGYLAGPADAVKAATALQSQSTSNVCSFAQRGALAALQGSRECVKKMVKSYNTRRELLTSGLLSLEGMSLVPPKGAFYAFPKLPPESLDSVSFCEQALENHGLAMVPGAAFGDDSCVRLTCAVSPETICDGLERLRKALKQS | not soluble |
| FADRMVIKAQSPAGFAEEYIIESIWNNRFPPGTILPAERELSELIGVTRTTLREVLQRLARDGWLTIQHGKPTKVNNFWETSGLNILETLARLDHESVPQLIDNLLSVRTNISTIFIRTAFRQHPDKAQEVLATANEVADHADAFAELDYNIFRGLAFASGNPIYGLILNGMKGLYTRIGRHYFANPEARSLALGFYHKLSALCSEGAHDQVYETVRRYGHESGEIWHRMQKNLPGDLAIQGR | soluble |
| MKLRASVLIGATILCLILSACSNYAKKVVKQKNHVYTPVYNELIEKYSEIPLNDKLKDTPFMVQVKLPNYKDYLLDNKQVVLTFKLVHHSKKITLIGDANKILQYKNYFQANGARSDIDFYLQPTLNQKGVVMIASNYNDNPNSKEKPQTFDVLQGSQPMLGANTKNLHGYDVSGANNKQVINEVAREKAQLEKINQYYKTLLQDKEQEYTTRKNNQREILETLSNRAGYQMRQNVISSEIFKNGNLNMQAKEEEVREKLQEERENEYLRNQIRSLLSGK | not soluble |
| DKFFIWGKRIDYNALKTTLIKKAQDENLLHFTPKISLVEDGFIRSISLGSDLTRPFSLIVDDKGLYIDPNKASKLEELLQNEIFDENMLNRAKNIIKILLENRFSKYNGLKHEDLKINAKIGQKIILIPAQVEDDASMILGGFGLSTLDLLKEVRAKNQDAYIIFKPHPDVLSGNRVGLKDETLILEFCDEIVKDCSIDSAIKIADEIHTITSTSGFDALLRAKKVFTYGMPFYAGWGLTKDKYRCERRIRKLSLEELVAGALIIYPRY | not soluble |
| MSSQNANLMREVRLFENHSEREQMENLSELFAVLNALEHLEKMFSRDHVSADEYKSECFKLIDQYKVTMRLVHGATSIEDFAKKYRLHCPAAIERIREGRPITVKDDQGNVLKHIASIVEQFITFLDALRLNTRAVDDLYPGLDDLYNAINTTSRVPIDAIVTTKVKKWHDRLSSMAASDEISDEDARQMIFDVESAYQAFNKALNELKH | soluble |
| MNSFVLMATVIREPELRFTKENQTPVCEFLVEFPGMRDDSPKESLKVVGWGNLANTIKETYHPGDRLIIEGRLGMNMIERQEGFKEKRAELTASRISLVDSGNGINPGELSSPPEPEAVDLSNTDDIPFLEHHHHHH | soluble |
| MLTKQPIAKKLNVSADVVWKVVRNIGRLDVWFPIIETCRVEGEGAGALRYMTVAGGGEIRDTIEEIDDVTMRLTYLRPLSPFPVTYYKGTVEVFKSYDGLAIVVWTIDFESEPEDAASVAELVRSAISDGIDGMERDLRGALEHHHHHH | soluble |
| MEFMRVLLIAGGVSPEHEVSLLSAEGVLRHIPFPTDLAVIAQDGRWLLGEKALTALEAKAAPEGEHPFPPPLSWERYDVVFPLLHGRFGEDGTVQGFLELLGKPYVGAGVAASALCMDKDLSKRVLAQAGVPVVPWVAVRKGEPPVVPFDPPFFVKPANTGSSVGISRVERFQDLEAALALAFRYDEKAVVEKALSPVRELEVGVLGNVFGEASPVGEVRYEAPFYDYETKYTPGRAELLIPAPLDPGTQETVQELALKAYKVLGVRGMARVDFFLAEGELYLNELNTIPGFTPTSMYPRLFEAGGVAYPELLRRLVELALT | soluble |
| MARQSSSLKSFIYKDECYFYSKKCIKTLRLRLNEKGEFVLSIPYFCTFKSVYEFLDKSSSWMNEAKKRFEKKVLKDDELIFLAKKYKIIFDENTKKTYFDKDKIICQNKAKLDLFLRQNAKKIFTFYLKKWSQKTGLFYTHLSIKNMKTRWGSCNHNKAYVNLNLKLIQKSLRAIEYVILHEISHLKFPNHSKEFYTFIEHFMSDFRQREKEFLSLEHHHHHH | soluble |
| MSLSSEPVVVAILPHAAELAEKIAAKIGGRVDLRGSDFTDTGAHLRSLFLAGHPIVGIGAAGIYIRSLASVLGDKNSEPPVLAVSEDARNIVPLLGGHHGANGLAKEIADYLETAAAVTTSGDVAMGVALDEPPQGWKLENPEDAKGAMAALLGGAKAQQSGNGDWLTPLSSRVEFSETDADAPVVLSVEGAAPLIYRRQSFALGLGCARGCDPDELIALVAKTLADNGRSIHEVAMVGSIDIKSDEAAIHAVARHLGVPARFFDADELNSVTPRLANPSEVVRAEVGVAGVSEGAALVMAGVSGALVIEKTKTANATCALARISQDGSEGHHHHHH | soluble |
| MKLFLAEPFKSLWAGRDAFAEVEGLSGEVYRELEGRRTLRTEVDGRGYFVKIHRGIGWGEIAKNLATAKLPVLGAGKEWDAIERLHEVGVPTMTAVAYGERGSNPAAQHSFIVTEELAPTTSLEDVSLNWRTEPPEPRLKRAFIAEVARLVGMMHRAGVNHRDCYICHFLLHTDKPVTADDFRLSVIDLHRAQTRRAITPRWRNKDLAALYFSALDIGLTRRDKLRFLKDYFQLPLREILLKEAALLTWLDKKADKLYQRKVRYGDAL | not soluble |
| MSWITNYDAAQRELLMQKVQMQMSERRFRHVLGVEETAVALAAKYGADEAKASIAALTHDYAKERPNDEFELIIRRDGFDLALLNYGNEIWHGLVGADIVQRELAIDDEEILQAIRVHTTGAAKMSLLDKIIYVADYIEPGRDFPGVKEAREIALVDLDAAVAYETKHTLLHLIEQEHKIYPKTLETYNQWVVNQK | not soluble |
| MIKESTLHISFMAVRQTMRRVISRIVPPREVEDIVQETYVRICQVENKEAIKQPRSFLLKTAKNLAIDHLKRADIRLVDTVDNMAEFEHLVSADDAIYQQVATDKEFAQFCEAIRQLPIQCRKAFVLKKVYGYSQKEIAKKLAISESTVEKHIGLGVKRCTYFMMQLTKEERTETMKNSKKTHQVRRDL | not soluble |
| MGSDKIHHHHHHMTEDEAITQLRRFVAALESGSRRNANDAAFALLAGNPPLGDRWQSIAHVMQTNGEYSAAHLAMARFAAHRADPNARFAQAAMLAQTGQLEEAWKVMGSVPFGVPSVSGHHYIRGTIAVNLGHIEDAEKHLLAAIEAEPALGQAMLSLAAARKRKAGDPIGDRILSAEPRMEGAPPLERAHFHYAAGRVHFDRREPDEAFRHFSAGAELVRGWRSYDAAADARDAAECRQGFDRDFVDKINNLVTLDTSQPIFVTGLPRSGTTLVEQILVSHSAVSGGEELGRMGVVRRDLTSLSAKGLSDYLQAGGNADDLAALYLHLGQERFGKEGRFVDKALNTSRFTGLIAALLPHAPIVWLRRDPADCAFSAYRTYFINGLDWSWNLEDIATHFALEDQLFHHWSRMFPDRILAVDYQQLVQEPQAQIRRILAHCNLEEEPQVFRPHETQRVVSTASVMQVREPINTGAVGAAGAYRLHLAPFVDRYEALSAAT | not soluble |
| MIDFNQLDDLARRLSDLVPPGLRQSREELQSTFKGALQAGLGKLDLVTREEFDVQRAVLLRTREKLDALEQTVAALEARSGNAPPTSPTP | not soluble |
| MIPDTEQELINQYLKKISKIPLLTPEEEKELARRAKQGDKEALKKLVESNLRFVVSVAKQYIGYGLPFSELIAAGNLGLLEAAKRFDPDRGVKFISYAVWWIRQAIMQALSQQTGAVRIPLKQSHIINKISHIYGELSKKLEREPSPEEIAEELSKQMIAKELEKELGREPTEEEIEERFKKEGYKITPEEVEKYLQVCRVPLSLDAPVGENEDTFFIDFLSKHGTAEVEEKVIQEVIQKEIDDLLSKLTDKERKVIELRFGLKGNEPKTLREIGEILGLSRERVRQLETRALRKLRSLAMKRHLKDFLS | soluble |
| MVSETSEETLYCIGCGAAIQTTDPKAAGYTPNSALQKSLASEAQDLYCQRCFRLRHYNEIVPVGLTDDDFRHLLATIRDANALVVYVVDIFDLNGSIIPGLQRFVGDNPVLLVGNKEDVLPRQLRRTKLREWMNQQVRAQGIKPVDVALTSAKKGHSIDELLAMIEKYRRGRDVYVVGVTNVGKSTLINRIIANNTGLKDLITTSRFPGTTLDKIEIPLDDGHMMVDTPGIIHPEQMAHVLSGDDLKLVSPQREIRPKGFQLGNGQTLFLGGVARLDIVDTLKATGTVYVDNNLPLHRTRTENADNFYTKHVGELITPPTGDAVADFPPLVRHEFKVTEISDIVFEGLGWVTVAADTRVAAWAPKGVAVLTRPAMINKRLEHHHHHH | soluble |
| MAHHHHHHMKKRTPLVGKRSYFTSLYDTKTEKTKLISEMDDLYDHILTSNWNDSVHLVLNVSIWEGILHSIEARIKPYEQDEDILKKKKMINEMFDVLFILEDLRDHVNELLEQSSRASGLAGTYILASFKIENMVEHIEFLKAKYDELLLKYPLYKYQIDMVLGKGLALLRQRYTFEWRHMHDFFF | not soluble |
| MANSMATLSRRLYRSLLSNPRISQASMSFCTNNITSPEDSDFDELESPIEPKASDPVSRFSGEERVMEERPLENGLDSGIFKAILVGQVGQLPLQKKLKSGRTVTLFSVGTGGIRNNRRPLINEDPREYASRSAVQWHRVSVYPERLADLVLKNVEPGTVIYLEGNLETKIFTDPVTGLVRRIREVAIRRNGRVVFLGKAGDMQQPSSAELRGVGYY | soluble |
